Results from patent US20200140562A1 (Innovent, published 2020).

T1: human OX40 on cells (CHO-hOX40, 293HEK-hOX40, Jurkat-hOX40, activated primary CD4+ T cells) (human, UniProt P43489 29-277)
T1 construct: whole, on cells; The cell type is told in each assay; also called CHO-OX40
T1 sequence (looked up): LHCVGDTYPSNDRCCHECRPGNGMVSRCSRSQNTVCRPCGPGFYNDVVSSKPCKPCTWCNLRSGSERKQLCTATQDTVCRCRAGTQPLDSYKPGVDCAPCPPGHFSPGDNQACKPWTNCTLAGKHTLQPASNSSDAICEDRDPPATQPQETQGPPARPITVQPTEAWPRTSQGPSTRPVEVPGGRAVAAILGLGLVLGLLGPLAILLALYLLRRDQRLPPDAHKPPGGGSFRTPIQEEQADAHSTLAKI

T2: mouse OX40Fc (Acro Biosystems) (mouse, UniProt P47741 20-211, limits assumed)
T2 construct: Bought; not shown: Fc
T2 sequence (looked up): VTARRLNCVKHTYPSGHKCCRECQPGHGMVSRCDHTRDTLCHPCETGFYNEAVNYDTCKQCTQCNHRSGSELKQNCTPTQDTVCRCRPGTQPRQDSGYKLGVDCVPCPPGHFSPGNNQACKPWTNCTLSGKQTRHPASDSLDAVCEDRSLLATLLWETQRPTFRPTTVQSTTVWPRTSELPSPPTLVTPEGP

T3: Human biotinylated OX40-His monomer (human, UniProt P43489 29-216, limits assumed, biotinylated)
T3 construct: Bought from Acro Biosystems; also called biotin-OX-40 monomer; not shown: His tag
T3 sequence (looked up): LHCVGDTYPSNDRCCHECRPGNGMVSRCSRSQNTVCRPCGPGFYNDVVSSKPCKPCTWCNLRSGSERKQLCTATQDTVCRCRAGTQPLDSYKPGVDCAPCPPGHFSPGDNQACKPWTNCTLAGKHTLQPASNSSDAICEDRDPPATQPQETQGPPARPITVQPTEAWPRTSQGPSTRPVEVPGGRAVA


What was measured:
[1] = biological target: T4, human OX40_Fc (R&D Systems) (human, UniProt P43489 29-216); assay: BLI, hOX40-Fc on tip, Fab 200 nM, monovalent
T4 construct: Bought

[2] = biological target: T1, human OX40 on cells (CHO-hOX40, …); assay: flow cytometry, CHO-hOX40, 100 nM
[3] = biological target: T4, human OX40_Fc (R&D Systems); assay: BLI, IgG1 on tip, hOX40-Fc 50 nM, avid
[4] = biological target: T5, cyno OX40_Fc (Acro Biosystems) (cyno); assay: BLI, IgG1 on tip, cyno OX40-Fc 100 nM, avid
T5 construct: Bought
Method: Sensors with loaded antibodies were exposed to 100 nM OX40 antigens for 5 min, afterwards they were transferred to assay buffer for dissociation of 5 min for off-rate measurement. Kinetics was analysed using the 1:1 binding model.

[5] = biological target: T2, mouse OX40Fc (Acro Biosystems); assay: BLI, IgG1 on tip, mouse OX40-Fc in solution
[6] = biological target: T1, human OX40 on cells (CHO-hOX40, …); assay: flow cytometry, MFI on CHO-hOX40 over wild-type CHO
[7] = biological target: T4, human OX40_Fc (R&D Systems); assay: BLI, hOX40-Fc on tip, Fab 200 nM, monovalent; remark: listed apart in the source
[8] = biological target: T3, Human biotinylated OX40-His monomer; assay: MSD-SET, biotinylated OX40-His monomer with Fab

| Binder | Kd [1] [nM] | Kd [7] [nM] | Kd [8] [nM] | also measured |
| --- | --- | --- | --- | --- |
| ADI-20118, Fab (Fab, V domains shown) VH: QVQLVQSGAEVKKPGASVKVSCKASGYTFTSYAISWVRQAPGQGLEWMGWISAYNGNTNYAQKLQGRVTMTTDTSTSTAYMELRSLRSDDTAVYYCARSGGGSGPNWFDPWGQGTLVTVSS VL: not shown | 137 | – | – | – |
| ADI-25652, IgG1 format (antibody, V domains shown, Made in yeast) VH: QVQLVESGGGVVQPGRSLRLSCAASGFTFVSYNMHWVRQAPGKGLEWVAVIAYDGSVKYYADSVKGRFTISRDNSKNTLYLQMNSLRAEDTAVYYCARGRPWYSETGTSAFDIWGQGTMVTVSS VL: DIQMTQSPSSLSASVGDRVTITCQASQDISNYLNWYQQKPGKAPKLLIYDASNLETGVPSRFSGSGSGTDFTFTISSLQPEDIATYYCQQSDHYPTFGGGTKVEIKR | – | – | – | CHO-OX40 binding intensity (MFI) [2]: 253000 MFI; Kd [3]: 0.261 nM; Kd [4]: 2.11 nM; binding result [5]: no binding (tested: 100 nM); Fold difference [6]: 2400 fold |
| ADI-20113, Fab (Fab, V domains shown) VH: QVQLVESGGGVVQPGRSLRLSCAASGFTFSSYGMHWVRQAPGKGLEWVAVISYDGSNKYYADSVKGRFTISRDNSKNTLYLQMNSLRAEDTAVYYCARGRPWYSETGTSAFDIWGQGTMVTVSS VL: EIVMTQSPATLSVSPGERATLSCRASQSVSSNLAWYQQKPGQAPRLLIYSASTRATGIPARFSGSGSGTEFTLTISSLQSEDFAVYYCQQHNVYPPYTFGGGTKVEIKR | 182 | – | – | – |
| ADI-20112, Fab (Fab, V domains shown) VH: QVQLVESGGGVVQPGRSLRLSCAASGFTFSSYGMHWVRQAPGKGLEWVAVISYDGSNKYYADSVKGRFTISRDNSKNTLYLQMNSLRAEDTAVYYCARGRPWYSETGTSAFDIWGQGTMVTVSS VL: DIQMTQSPSSLSASVGDRVTITCQASQDISNYLNWYQQKPGKAPKLLIYDASNLETGVPSRFSGSGSGTDFTFTISSLQPEDIATYYCQQSDHYPTFGGGTKVEIKR | 70.6 | 63.9 | – | – |
| ADI-20051, Fab (Fab, V domains shown) VH: QVQLQQWGAGLLKPSETLSLTCAVYGGSFSGYYWSWIRQPPGKGLEWIGEIDHSGSTNYNPSLKSRVTISVDTSKNQFSLKLSSVTAADTAVYYCARDGGGGYASPFDYWGQGTLVTVSS VL: EIVMTQSPATLSVSPGERATLSCRASQSVSSNLAWYQQKPGQAPRLLIYGASTRATGIPARFSGSGSGTEFTLTISSLQSEDFAVYYCQQYHAWPPTFGGGTKVEIKR | 25.8 | – | – | – |
| ADI-23518, IgG1 format (antibody, V domains shown, Made in yeast) VH: QVQLQESGPGLVKPSQTLSLTCTVSGGSISSGASYWSWIRQHPGKGLEWIGYIYYSGETYYNPSLKSRVTISVDTSKNQFSLKLSSVTAADTAVYYCARDVGYPHYYGMDVWGQGTTVTVSS VL: EIVLTQSPGTLSLSPGERATLSCRASQSVSSSYLAWYQQKPGQAPRLLIYGASSRATGIPDRFSGSGSGTDFTLTISRLEPEDFAVYYCQQSERSPFTFGGGTKVEIKR | – | – | – | CHO-OX40 binding intensity (MFI) [2]: 173000 MFI; Kd [3]: 0.297 nM; Kd [4]: 1.08 nM; Fold difference [6]: 1480 fold |
| ADI-23515, Fab (Fab, V domains shown) VH: QVQLQESGPGLVKPSQTLSLTCTVSGGSIRSGAYYWSWIRQHPGKGLEWIGYIYYDGQTYYNPSLKSRVTISVDTSKNQFSLKLSSVTAADTAVYYCARDVGYPHYYGMDVWGQGTTVTVSS VL: EIVLTQSPGTLSLSPGERATLSCRASQSVSSSYLAWYQQKPGQAPRLLIYGASSRATGIPDRFSGSGSGTDFTLTISRLEPEDFAVYYCQQSERSPFTFGGGTKVEIKR | – | 3.79 | 0.16 | – |
| ADI-20066, Fab (Fab, V domains shown) VH: QLQLQESGPGLVKPSETLSLTCTVSGGSISSSSYYWGWIRQPPGKGLEWIGSIYYSGSTYYNPSLKSRVTISVDTSKNQFSLKLSSVTAADTAVYYCARDPGYSASPNWFDPWGQGTLVTVSS VL: EIVLTQSPGTLSLSPGERATLSCRASQSVSSSFLAWYQQKPGQAPRLLIYGASSRATGIPDRFSGSGSGTDFTLTISRLEPEDFAVYYCQQYDVFPITFGGGTKVEIKR | 21.8 | – | – | – |
| ADI-23518, Fab (Fab, V domains shown) VH: QVQLQESGPGLVKPSQTLSLTCTVSGGSISSGASYWSWIRQHPGKGLEWIGYIYYSGETYYNPSLKSRVTISVDTSKNQFSLKLSSVTAADTAVYYCARDVGYPHYYGMDVWGQGTTVTVSS VL: EIVLTQSPGTLSLSPGERATLSCRASQSVSSSYLAWYQQKPGQAPRLLIYGASSRATGIPDRFSGSGSGTDFTLTISRLEPEDFAVYYCQQSERSPFTFGGGTKVEIKR | – | 7.16 | – | – |
| ADI-23519, IgG1 format (antibody, V domains shown, Made in yeast) VH: QVQLQESGPGLVKPSQTLSLTCTVSGGSISSGSSYWSWIRQHPGKGLEWIGYIYMSGETYYNPSLKSRVTISVDTSKNQFSLKLSSVTAADTAVYYCARDVGYPHYYGMDVWGQGTTVTVSS VL: EIVLTQSPGTLSLSPGERATLSCRASQSVSSSYLAWYQQKPGQAPRLLIYGASSRATGIPDRFSGSGSGTDFTLTISRLEPEDFAVYYCQQSERSPFTFGGGTKVEIKR | – | – | – | Kd [3]: 0.255 nM; Kd [4]: 1.1 nM |
| ADI-20065, Fab (Fab, V domains shown) VH: QLQLQESGPGLVKPSETLSLTCTVSGGSISSSSYYWGWIRQPPGKGLEWIGSIYYSGSTYYNPSLKSRVTISVDTSKNQFSLKLSSVTAADTAVYYCARDPGYSASPNWFDPWGQGTLVTVSS VL: not shown | 10.8 | – | – | – |

Now from value to binder, other results behind:

| Kd [1] [nM] | Kd [7] [nM] | Kd [8] [nM] | Binder | also measured |
| --- | --- | --- | --- | --- |
| – | 1.04 | 0.14 | ADI-25650, Fab (Fab, V domains shown) VH: QVQLVESGGGVVQPGRSLRLSCAASGFTFSVYNMHWVRQAPGKGLEWVAVIAYDGSAKYYADSVKGRFTISRDNSKNTLYLQMNSLRAEDTAVYYCARGRPWYSETGTSAFDIWGQGTMVTVSS VL: DIQMTQSPSSLSASVGDRVTITCQASQDISNYLNWYQQKPGKAPKLLIYDASNLETGVPSRFSGSGSGTDFTFTISSLQPEDIATYYCQQSDHYPTFGGGTKVEIKR | – |
| – | 1.8 | 0.18 | ADI-25654, Fab (Fab, V domains shown) VH: QVQLVESGGGVVQPGRSLRLSCAASGFTFRSYDMHWVRQAPGKGLEWVAYIAYDGSNKYYADSVKGRFTISRDNSKNTLYLQMNSLRAEDTAVYYCARGRPWYSETGTSAFDIWGQGTMVTVSS VL: DIQMTQSPSSLSASVGDRVTITCQASQDISNYLNWYQQKPGKAPKLLIYDASNLETGVPSRFSGSGSGTDFTFTISSLQPEDIATYYCQQSDHYPTFGGGTKVEIKR | – |
| – | 1.31 | 0.15 | ADI-25652, Fab (Fab, V domains shown) VH: QVQLVESGGGVVQPGRSLRLSCAASGFTFVSYNMHWVRQAPGKGLEWVAVIAYDGSVKYYADSVKGRFTISRDNSKNTLYLQMNSLRAEDTAVYYCARGRPWYSETGTSAFDIWGQGTMVTVSS VL: DIQMTQSPSSLSASVGDRVTITCQASQDISNYLNWYQQKPGKAPKLLIYDASNLETGVPSRFSGSGSGTDFTFTISSLQPEDIATYYCQQSDHYPTFGGGTKVEIKR | – |
| – | 2.32 | 0.17 | ADI-25651, Fab (Fab, V domains shown) VH: QVQLVESGGGVVQPGRSLRLSCAASGFTFSSRNMHWVRQAPGKGLEWVAVIAYDGSLKYYADSVKGRFTISRDNSKNTLYLQMNSLRAEDTAVYYCARGRPWYSETGTSAFDIWGQGTMVTVSS VL: DIQMTQSPSSLSASVGDRVTITCQASQDISNYLNWYQQKPGKAPKLLIYDASNLETGVPSRFSGSGSGTDFTFTISSLQPEDIATYYCQQSDHYPTFGGGTKVEIKR | – |
| – | 1.63 | 0.086 | ADI-25653, Fab (Fab, V domains shown) VH: QVQLVESGGGVVQPGRSLRLSCAASGFTFVSYNMHWVRQAPGKGLEWVAVIMYDGSAKYYADSVKGRFTISRDNSKNTLYLQMNSLRAEDTAVYYCARGRPWYSETGTSAFDIWGQGTMVTVSS VL: DIQMTQSPSSLSASVGDRVTITCQASQDISNYLNWYQQKPGKAPKLLIYDASNLETGVPSRFSGSGSGTDFTFTISSLQPEDIATYYCQQSDHYPTFGGGTKVEIKR | – |
| – | 5.36 | – | ADI-23519, Fab (Fab, V domains shown) VH: QVQLQESGPGLVKPSQTLSLTCTVSGGSISSGSSYWSWIRQHPGKGLEWIGYIYMSGETYYNPSLKSRVTISVDTSKNQFSLKLSSVTAADTAVYYCARDVGYPHYYGMDVWGQGTTVTVSS VL: EIVLTQSPGTLSLSPGERATLSCRASQSVSSSYLAWYQQKPGQAPRLLIYGASSRATGIPDRFSGSGSGTDFTLTISRLEPEDFAVYYCQQSERSPFTFGGGTKVEIKR | – |
